Values quoted from earlier work in paper PMC13242166.

Target: TRH1 receptor (Homo sapiens) (UniProt P34981)
Test: radioligand binding

UniProt P34981, sequence (P34981 whole entry): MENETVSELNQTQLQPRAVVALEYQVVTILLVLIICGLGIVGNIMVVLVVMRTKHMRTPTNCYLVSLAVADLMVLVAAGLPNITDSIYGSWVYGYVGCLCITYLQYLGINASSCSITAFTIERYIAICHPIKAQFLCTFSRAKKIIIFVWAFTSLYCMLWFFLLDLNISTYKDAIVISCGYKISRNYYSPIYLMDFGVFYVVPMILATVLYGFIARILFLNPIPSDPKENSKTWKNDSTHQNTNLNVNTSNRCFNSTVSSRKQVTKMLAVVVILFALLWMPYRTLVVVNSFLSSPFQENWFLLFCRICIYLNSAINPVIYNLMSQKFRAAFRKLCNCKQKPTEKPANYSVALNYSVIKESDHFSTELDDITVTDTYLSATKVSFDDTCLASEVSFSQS

## TRH (from UniProt P20396)
  Kd: 13 nM
